The chains are these.
B2: BMP-2 (ligand, UniProt P12643 283-396, looked up)
chain: QAKHKQRKRLKSSCKRHPLYVDFSDVGWNDWIVAPPGYHAFYCHGECPFPLADHLNSTNHAIVQTLVNSVNSKIPKACCVPTELSAISMLYLDENEKVVLKNYQDMVVEGCGCR
B3: BMP-4 (ligand, UniProt P12644 293-408, looked up)
chain: SPKHHSQRARKKNKNCRRHSLYVDFSDVGWNDWIVAPPGYQAFYCHGDCPFPLADHLNSTNHAIVQTLVNSVNSSIPKACCVPTELSAISMLYLDEYDKVVLKNYQEMVVEGCGCR
B4: follistatin-Fc human chimera FS315-hFc (Sino Biological Inc. Catalog Number 10685-H02H) (Fc fusion)
chain: GNCWLRQAKNGRCQVLYKTELSKEECCSTGRLSTSWTEEDVNDNTLFKWMIFNGGAPNCIPCKETCENVDCGPGKKCRMNKKNKPRCVCAPDCSNITWKGPVCGLDGKTYRNECALLKARCKEQPELEVQYQGRCKKTCRDVFCPGSSTCVVDQTNNAYCVTCNRICPEPASSEQYLCGNDGVTYSSACHLRKATCLLGRSIGLAYEGKCIKAKSCEDIQCTGGKKCLWDFKVGRGRCSLCDELCPDSKSDEPVCASDNATYASECAMKEAACSSGVLLEVKHSGSCNSISEDTEEEEEDEDQDYSFPISSILEWALEVLFQGP
notes: Bought fusion protein; also called Sino Biological FS315-hFc; not shown: human Fc of the bought product
B5: activin (ligand, UniProt P08476 311-426, looked up)
chain: GLECDGKVNICCKKQFFVSFKDIGWNDWIIAPSGYHANYCEGECPSHIAGTSGSSLSFHSTVINHYRMRGHSPFANLKSCCVPTKLRPMSMLYYDDGQNIIKKDIQNMIVEECGCS
notes: also called activin A
B6: BMP-6 (ligand, UniProt P22004 382-513, looked up)
chain: QQSRNRSTQSQDVARVSSASDYNSSELKTACRKHELYVSFQDLGWQDWIIAPKGYAANYCDGECSFPLNAHMNATNHAIVQTLVHLMNPEYVPKPCCAPTKLNAISVLYFDDNSNVILKKYRNMVVRACGCH
B7: FS315 (R&D Systems) (other)
chain: GNCWLRQAKNGRCQVLYKTELSKEECCSTGRLSTSWTEEDVNDNTLFKWMIFNGGAPNCIPCKETCENVDCGPGKKCRMNKKNKPRCVCAPDCSNITWKGPVCGLDGKTYRNECALLKARCKEQPELEVQYQGRCKKTCRDVFCPGSSTCVVDQTNNAYCVTCNRICPEPASSEQYLCGNDGVTYSSACHLRKATCLLGRSIGLAYEGKCIKAKSCEDIQCTGGKKCLWDFKVGRGRCSLCDELCPDSKSDEPVCASDNATYASECAMKEAACSSGVLLEVKHSGSCNSISEDTEEEEEDEDQDYSFPISSILEW
B9: BMP-9 (ligand, UniProt Q9UK05 320-429, looked up)
chain: SAGAGSHCQKTSLRVNFEDIGWDSWIIAPKEYEAYECKGGCFFPLADDVTPTKHAIVQTLVHLKFPTKVGKACCVPTKLSPISVLYKDDMGVPTLKYHYEGMSVAECGCR
B10: BMP-7 (ligand, UniProt P18075 293-431, looked up)
chain: STGSKQRSQNRSKTPKNQEALRMANVAENSSSDQRQACKKHELYVSFRDLGWQDWIIAPEGYAAYYCEGECAFPLNSYMNATNHAIVQTLVHFINPETVPKPCCAPTQLNAISVLYFDDSSNVILKKYRNMVVRACGCH
B11: sActRIIB-hFc (Fc fusion, UniProt Q13705 25-134, looked up)
chain: ETRECIYYNANWELERTNQSGLERCEGEQDKRLHCYASWRNSSGTIELVKKGCWLDDFNCYDRQECVATEENPQVYFCCCEGNFCNERFTHLPEAGGPEVTYEPPPTAPT
notes: Control protein in the Biacore assay; also called sActRTIB-hFc; sActRIIB-Fc; not shown: human Fc

The target in test [1] is B4. Briefly: Biacore SPR, 25 C; Fc fusion captured with human antibody capture kit, ligand as soluble analyte. From the text:
(§1) Specifically, commercially available follistatins (FS315, manufactured by R&D Systems and follistatin-Fc human chimera FS315-hFc, manufactured by Sino Biological), and FS315-GAG3-mFc fusion proteins were used to assess binding affinity and kinetics to activin, myostatin, and BMPs using Biacore assays. Briefly, FS315 was immobilized onto a CM5 chip, and follistatin-Fc fusion proteins were captured using human or mouse antibody capture kits (GE Healthcare). Post amine-coupling, a concentration series of activin, myostatin, or BMPs (e.g., BMP-2, -4, -6, -7, -9, -10, and GDF-1) was added as soluble analyte at 25° C. sActRTIB-hFc was used as a control. Binding affinities (Kd) and kinetics were determined using standard methods.

The target of the test “sActRIIB-hFc” is B11. Described as above.
Excerpt: as §1

Test [2] concerns the target B7. Put plainly: Biacore SPR, 25 C; FS315 immobilized on CM5 chip, ligand as soluble analyte.
Excerpt: as §1

Test [3] deals with B4. Put plainly: Biacore SPR, 25 C; Fc fusion captured with antibody capture kit, ligand as soluble analyte.
Excerpt: as §1

Test [4] concerns the target B5. Put plainly: cell-based or functional assay.
The target of test [5] is T1, myostatin (UniProt O14793 267-375).
T1 sequence (looked up): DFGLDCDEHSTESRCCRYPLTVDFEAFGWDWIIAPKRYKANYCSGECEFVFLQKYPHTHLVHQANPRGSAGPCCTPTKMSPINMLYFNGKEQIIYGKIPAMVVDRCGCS
Put plainly: cell-based or functional assay.

Test [6] addresses T1, myostatin. Briefly: Biacore SPR (Table 3).
Excerpt: as §1

Test [7] has as its target B7. Put plainly: Biacore SPR, 25 C; FS315 immobilized on CM5 chip, ligand as soluble analyte; FS315 (R&D Systems, no Fc) amine-coupled to CM5 chip; activin as soluble analyte; 25 C.
Excerpt: as §1

Test [8] has as its target T1, myostatin. Put plainly: cell-based or functional assay. The source holds these as a separate data set.
Test [9] concerns the target B7. Put plainly: Biacore SPR, 25 C; FS315 immobilized on CM5 chip, ligand as soluble analyte; Table 3 cell for this pair: fitted KD, FS315 immobilized on CM5, BMP-10 as analyte, 25 C.
Excerpt: as §1

Test [10] addresses B9. Put plainly: Biacore SPR, 25 C; Fc fusion captured with human antibody capture kit, ligand as soluble analyte.
Excerpt: as §1

For the test “BMP-6”, the target named is B6. Described as above.
Excerpt: as §1

Test [11] has as its target B5. The test is described as above.
Excerpt: as §1

The test “BMP-7” has as its target B10. The test is described as above.
Excerpt: as §1

The target in the test “BMP-4” is B3. Described as above.
Excerpt: as §1

The target of test [12] is B9. Put plainly: cell-based or functional assay.
The test “BMP-2” deals with B2. Put plainly: Biacore SPR, 25 C; Fc fusion captured with antibody capture kit, ligand as soluble analyte.
Excerpt: as §1

B1: GDF-11 (ligand, UniProt O95390 299-407, looked up)
chain: NLGLDCDEHSSESRCCRYPLTVDFEAFGWDWIIAPKRYKANYCSGQCEYMFMQKYPHTHLVQQANPRGSAGPCCTPTKMSPINMLYFNDKQQIIYGKIPGMVVDRCGCS
Turning to B1, the equilibrium dissociation constant (Kd) stood at 0.82 nM in test [1] and 0.34 nM in the test with sActRIIB-hFc.
Molecule B2 yielded a Kd with FS315 (R&D Systems) [2] of 440 nM. In addition, the binding result in test [3] is listed as “no binding”.
In the test with FS315 (R&D Systems) [2], B3 displayed a Kd of 14 nM.
As for B4, the “IC50, CAGA-luciferase reporter assay for Smad2/3 signaling (1.2 nM activin)” value with activin [4] was 2.9 nM. The “IC50, CAGA-luciferase reporter assay for Smad2/3 signaling (1.2 nM myostatin)” value with myostatin [5] turned out to be 2.99 nM. Besides, the “fold increase of binding affinity against follistatin (FS315)” value with myostatin [6] was at least 10 fold.
In the case of B5, the values for the Kd (in test [1]; with FS315 (R&D Systems) [7]) were 0.19 nM and 0.73 nM, respectively.
On to B6, for which the Kd with FS315 (R&D Systems) [2] worked out at 0.36 nM; in [1], 0.9 nM.
Turning to B7, the “IC50, CAGA-luciferase reporter assay for Smad2/3 signaling (1.2 nM activin)” value with activin [4] stood at 0.4 nM. The “IC50, CAGA-luciferase reporter assay for Smad2/3 signaling (1.2 nM myostatin)” value in the test with myostatin [5] turned out to be 0.45 nM. The “IC50 (read off the curve); CAGA-luciferase reporter in HEK293 cells, myostatin (1.2 nM)-induced Smad2/3 signalling” value with myostatin [8] is around 0.2 nM.

B8: BMP-10 (ligand, UniProt O95393 317-424, looked up)
chain: NAKGNYCKRTPLYIDFKEIGWDSWIIAPPGYEAYECRGVCNYPLAEHLTPTKHAIIQALVHLKNSQKASKACCVPTKLEPISILYLDKGVVTYKFKYEGMAVSECGCR
Regarding B8, the Kd is 150 nM in test [1], 0.01 nM with sActRIIB-hFc and 100 nM with FS315 (R&D Systems) [9].
As to B9, the binding result (in the test with FS315 (R&D Systems) [2]; in test [3]) was “no binding” in each case.
In the test with FS315 (R&D Systems) [2], B10 had a Kd of 38 nM.
Turning to B11, the Kd turned out to be 0.054 nM with BMP-9 [10]; 0.057 nM with BMP-6; 0.07 nM in the test with activin [11]; 1.1 nM in the test with BMP-7; 130 nM with BMP-4. In addition, in the test with BMP-9 [12], the “IC50 (read off the curve); BRE-luciferase reporter in HEK293 cells, BMP-9-induced Smad1/5/8 signalling” value is around 20 nM. For the same molecule, in the test with BMP-2, the binding result was “no binding”.

These data come from patent US20180305421A1 (SHIRE HUMAN GENETIC THERAPIES, published 2018).
